From IntAct's records for PubMed 18434552

B1: Tyrosine-protein phosphatase non-receptor type 23 (Homo sapiens), Q9H3S7 (parent)
chain: MEAVPRMPMIWLDLKEAGDFHFQPAVKKFVLKNYGENPEAYNEELKKLELLRQNAVRVPRDFEGCSVLRKYLGQLHYLQSRVPMGSGQEAAVPVTWTEIFSGKSVAHEDIKYEQACILYNLGALHSMLGAMDKRVSEEGMKVSCTHFQCAAGAFAYLREHFPQAYSVDMSRQILTLNVNLMLGQAQECLLEKSMLDNRKSFLVARISAQVVDYYKEACRALENPDTASLLGRIQKDWKKLVQMKIYYFAAVAHLHMGKQAEEQQKFGERVAYFQSALDKLNEAIKLAKGQPDTVQDALRFTMDVIGGKYNSAKKDNDFIYHEAVPALDTLQPVKGAPLVKPLPVNPTDPAVTGPDIFAKLVPMAAHEASSLYSEEKAKLLREMMAKIEDKNEVLDQFMDSMQLDPETVDNLDAYSHIPPQLMEKCAALSVRPDTVRNLVQSMQVLSGVFTDVEASLKDIRDLLEEDELLEQKFQEAVGQAGAISITSKAELAEVRREWAKYMEVHEKASFTNSELHRAMNLHVGNLRLLSGPLDQVRAALPTPALSPEDKAVLQNLKRILAKVQEMRDQRVSLEQQLRELIQKDDITASLVTTDHSEMKKLFEEQLKKYDQLKVYLEQNLAAQDRVLCALTEANVQYAAVRRVLSDLDQKWNSTLQTLVASYEAYEDLMKKSQEGRDFYADLESKVAALLERTQSTCQAREAARQQLLDRELKKKPPPRPTAPKPLLPRREESEAVEAGDPPEELRSLPPDMVAGPRLPDTFLGSATPLHFPPSPFPSSTGPGPHYLSGPLPPGTYSGPTQLIQPRAPGPHAMPVAPGPALYPAPAYTPELGLVPRSSPQHGVVSSPYVGVGPAPPVAGLPSAPPPQFSGPELAMAVRPATTTVDSIQAPIPSHTAPRPNPTPAPPPPCFPVPPPQPLPTPYTYPAGAKQPIPAQHHFSSGIPAGFPAPRIGPQPQPHPQPHPSQAFGPQPPQQPLPLQHPHLFPPQAPGLLPPQSPYPYAPQPGVLGQPPPPLHTQLYPGPAQDPLPAHSGALPFPSPGPPQPPHPPLAYGPAPSTRPMGPQAAPLTIRGPSSAGQSTPSPHLVPSPAPSPGPGPVPPRPPAAEPPPCLRRGAAAADLLSSSPESQHGGTQSPGGGQPLLQPTKVDAAEGRRPQALRLIERDPYEHPERLRQLQQELEAFRGQLGDVGALDTVWRELQDAQEHDARGRSIAIARCYSLKNRHQDVMPYDSNRVVLRSGKDDYINASCVEGLSPYCPPLVATQAPLPGTAADFWLMVHEQKVSVIVMLVSEAEMEKQKVARYFPTERGQPMVHGALSLALSSVRSTETHVERVLSLQFRDQSLKRSLVHLHFPTWPELGLPDSPSNLLRFIQEVHAHYLHQRPLHTPIIVHCSSGVGRTGAFALLYAAVQEVEAGNGIPELPQLVRRMRQQRKHMLQEKLHLRFCYEAVVRHVEQVLQRHGVPPPCKPLASASISQKNHLPQDSQDLVLGGDVPISSIQATIAKLSIRPPGGLESPVASLPGPAEPPGLPPASLPESTPIPSSSPPPLSSPLPEAPQPKEEPPVPEAPSSGPPSSSLELLASLTPEAFSLDSSLRGKQRMSKHNFLQAHNGQGLRATRPSDDPLSLLDPLWTLNKT
partner: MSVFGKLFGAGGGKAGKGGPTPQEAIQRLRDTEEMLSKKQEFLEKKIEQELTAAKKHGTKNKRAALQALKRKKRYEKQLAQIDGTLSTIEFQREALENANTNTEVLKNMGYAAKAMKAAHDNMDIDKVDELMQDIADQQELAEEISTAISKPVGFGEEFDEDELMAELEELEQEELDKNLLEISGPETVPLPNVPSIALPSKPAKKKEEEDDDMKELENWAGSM

Variants of: B1
Details: with chm4b_human CHMP4B

Row | effect of a mutation on the interaction | Variant
1 | disrupting interaction | L202D
2 | disrupting interaction | L202D;I206D
